According to patent publication US20250277031A1:

Tests used:
[1] = biological target: human CD47 on human red blood cells (human) (UniProt Q08722); test: flow cytometry on human RBCs
[2] = biological target: rat CD47 on rat red blood cells (rat) (UniProt P97829); test: flow cytometry on rat RBCs
[3] = biological target: mouse CD47 on mouse red blood cells (mouse) (UniProt Q61735); test: flow cytometry on mouse RBCs
[4] = biological target: cynomolgus CD47 on cynomolgus red blood cells (cynomolgus); test: flow cytometry on cynomolgus RBCs

rat CD47 on rat red blood cells (rat), sequence (P97829 19-303): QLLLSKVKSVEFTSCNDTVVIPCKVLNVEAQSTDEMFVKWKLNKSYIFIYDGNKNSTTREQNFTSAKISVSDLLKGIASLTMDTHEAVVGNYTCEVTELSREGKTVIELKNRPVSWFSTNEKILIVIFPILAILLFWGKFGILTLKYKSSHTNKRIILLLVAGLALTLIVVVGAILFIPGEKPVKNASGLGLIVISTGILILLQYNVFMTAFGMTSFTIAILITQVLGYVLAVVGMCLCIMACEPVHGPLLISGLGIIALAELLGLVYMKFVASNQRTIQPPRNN
mouse CD47 on mouse red blood cells (mouse), sequence (Q61735 19-303): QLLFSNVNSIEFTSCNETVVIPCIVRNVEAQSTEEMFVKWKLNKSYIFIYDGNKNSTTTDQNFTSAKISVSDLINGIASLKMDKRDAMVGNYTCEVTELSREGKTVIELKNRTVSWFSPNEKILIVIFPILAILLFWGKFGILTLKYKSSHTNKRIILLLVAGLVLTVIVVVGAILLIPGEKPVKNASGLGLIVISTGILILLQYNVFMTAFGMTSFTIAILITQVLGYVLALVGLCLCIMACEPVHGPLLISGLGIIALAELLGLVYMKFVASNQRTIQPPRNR

MFI [1]: 3.65
MFI [2]: 3.33
MFI [3]: 3.21
MFI [4]: 3.95
Substance: Isotype control (antibody)
